Data as given in publication PMC8348221, “Characterization of the Intramolecular Interactions and Regulatory Mechanisms of the Scaffold Protein Tks4” (International Journal of Molecular Sciences, 2021).
Changes are numbered by the printed parent chain. Names and notes keep the numbering of the source. One block for each binder: values may come before it. Where no end group is shown, it is not given here.

Tests used:
Conditions in all cases: both partners purified
[1] = molecular target: T1, Tks4 PX–SH3_(2) fragment (residues 1–279) (human, UniProt A1X283 1-279); test: MST; NT-647-labelled PRR–SH3_(3) constant at 20 nM, titrated with PX–SH3_(2) (16-step 1:2 dilutions from 40 µM); PBS, 0.5 mM TCEP, 0.05% TWEEN 20; room temperature; 1:1 Kd fit
T1 construct: human Tks4 (SH3PXD2B), residues 1-279: PX, SH3_(1) and SH3_(2) domains; The modified pET vector has a TEV site after the His-tag; source: E. coli Rosetta pLysS, purified
T1 sequence (looked up): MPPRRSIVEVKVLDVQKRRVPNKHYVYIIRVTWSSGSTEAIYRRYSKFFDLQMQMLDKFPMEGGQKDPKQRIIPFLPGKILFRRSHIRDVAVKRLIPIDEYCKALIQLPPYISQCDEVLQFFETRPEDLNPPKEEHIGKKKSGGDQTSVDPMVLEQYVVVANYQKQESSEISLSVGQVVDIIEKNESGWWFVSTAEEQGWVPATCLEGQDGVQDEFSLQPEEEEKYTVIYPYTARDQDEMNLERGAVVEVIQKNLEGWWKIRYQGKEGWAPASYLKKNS

[2] = molecular target: T1, Tks4 PX–SH3_(2) fragment (residues …); test: ITC; PX–SH3_(2) 20 µM in the cell, PRR–SH3_(3) 250 µM in the syringe; 25 °C; PBS with 0.5 mM TCEP; one set of independent binding sites model
[3] = molecular target: T2, Tks4 SH3_(1)–SH3_(2) tandem SH3 fragment (residues 155–279) (human, UniProt A1X283 155-279, NT-647 amine-reactive dye (in the MST only)); test: other fluorescence titration; intrinsic tryptophan fluorescence (excitation 295 nm, followed at 340 nm); SH3_(1)–SH3_(2) constant at 5 µM, PRR fragments 1.8–100 µM; PBS, 0.5 mM TCEP, 0.05% TWEEN 20; 1:1 binding model
T2 construct: human Tks4 (SH3PXD2B), residues 155-279: first and second SH3 domains with their linker; The vector has a TEV site after the His-tag; Unlabelled in the tryptophan fluorescence titrations; source: E. coli Rosetta pLysS, purified
T2 sequence (looked up): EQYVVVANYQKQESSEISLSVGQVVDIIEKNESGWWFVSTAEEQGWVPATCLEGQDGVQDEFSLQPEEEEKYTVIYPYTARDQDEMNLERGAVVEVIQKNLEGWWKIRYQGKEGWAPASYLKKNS

[4] = molecular target: T2, Tks4 SH3_(1)–SH3_(2) tandem SH3 …; test: MST; NT-647-labelled SH3_(1)–SH3_(2) constant at 20 nM, titrated with PRRL (16-step 2:3 dilutions from 166 µM); PBS, 0.5 mM TCEP, 0.05% TWEEN 20; room temperature; standard Kd fit model
[5] = molecular target: T2, Tks4 SH3_(1)–SH3_(2) tandem SH3 …; test: other fluorescence titration; intrinsic tryptophan fluorescence (excitation 295 nm, followed at 340 nm); SH3_(1)–SH3_(2) constant at 5 µM, PRR fragments 1.8–100 µM; PBS, 0.5 mM TCEP, 0.05% TWEEN 20; 1:1 binding model; remark: listed apart in the source
[6] = molecular target: T3, Tks4 PX–SH3_(1) fragment (residues 1–210) (human, UniProt A1X283 1-210); test: MST; NT-647-labelled SH3_(3) constant at 20 nM, titrated with PX–SH3_(1) (16-step 2:3 dilutions from 412 µM) or, as a control, with SH3_(1); PBS, 0.5 mM TCEP, 0.05% TWEEN 20; room temperature
T3 construct: human Tks4 (SH3PXD2B), residues 1-210: PX and SH3_(1) domains; The vector has a TEV site after the His-tag; source: E. coli Rosetta pLysS, purified
T3 sequence (looked up): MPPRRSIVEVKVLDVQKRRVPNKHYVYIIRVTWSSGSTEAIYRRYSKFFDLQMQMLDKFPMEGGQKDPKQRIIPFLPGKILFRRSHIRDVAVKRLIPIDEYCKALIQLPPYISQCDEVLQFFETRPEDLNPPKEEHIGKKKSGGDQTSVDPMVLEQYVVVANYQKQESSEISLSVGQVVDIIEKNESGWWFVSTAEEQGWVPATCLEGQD

B2: Tks4 PRRL fragment (residues 333–370) (domain or fragment, human)
chain: GSHMGDAKQRSPKMRQRPPPRRDMTIPRGLNLPKPPIPPQVE
notes: four N-terminal residues that are cloning artifacts; human Tks4 (SH3PXD2B), residues 333-370: proline-rich region with the PTAM (PPPRR) and the PKPPIPP motif; also called wild type PRRL; not shown: His-tag, N-terminal, cleaved
Kd [3]: 11 µM
Kd [4]: 15 µM
Kd [5]: 24 µM

B3: Tks4 PRRL^T353E phosphomimetic mutant fragment (domain or fragment, human)
chain: B2 chain with T25E
notes: four N-terminal residues that are cloning artifacts; human Tks4 (SH3PXD2B), residues 333-370 with the phosphomimetic Thr-to-Glu mutation T353E; not shown: His-tag, N-terminal, cleaved
Kd [3]: 10 µM

B5: Tks4 PRRS peptide (peptide)
peptide: KMRQRPPPRRDMTIPRG
notes: human Tks4 (SH3PXD2B), truncated version of PRRL containing only the PTAM; source: synthetic peptide (Fmoc/tBu SPPS, RP-HPLC purified)
Kd [3]: 12 µM

Results, then the binder that gave them:

Kd [1]: ~0.24 µM
Kd [2]: 0.3 ± 0.2 µM
B1: Tks4 PRR–SH3_(3) fragment (residues 333–426) (domain or fragment, human, UniProt A1X283 333-426, looked up)
chain: GDAKQRSPKMRQRPPPRRDMTIPRGLNLPKPPIPPQVEEEYYTIAEFQTTIPDGISFQAGLKVEVIEKNLSGWWYIQIEDKEGWAPATFIDKYK
modifications: NT-647 amine-reactive dye (in the MST only)
notes: human Tks4 (SH3PXD2B), residues 333-426: proline-rich region and SH3_(3) domain; The vector has a TEV site after the His-tag; Labelled in the MST, unlabelled in the ITC; source: E. coli Rosetta pLysS, purified

Kd [6]: > 50 µM
B4: Tks4 SH3_(3) domain (residues 371–426) (domain or fragment, human, UniProt A1X283 371-426, looked up)
chain: EEYYTIAEFQTTIPDGISFQAGLKVEVIEKNLSGWWYIQIEDKEGWAPATFIDKYK
modifications: also: NT-647 amine-reactive dye label, site not given here (MST only)
notes: human Tks4 (SH3PXD2B), residues 371-426: third SH3 domain; The vector has a TEV site after the His-tag; also called third SH3 domain; source: E. coli Rosetta pLysS, purified
